Columns and labels:
Details in all cases: both partners purified
[1] = molecular target: muskelin CTLH-CRA domain co-expressed with Twa1_52 (rat); assay: SEC-MALS; CTLH-CRA domain complexes co-expressed in E. coli and purified as complexes; Superdex 75 10/300 GL; 20 mM tricine pH 8.0, 500 mM NaCl, 1 mM TCEP
[2] = molecular target: T1, Wdr26 CTLH-CRA domain (136-278) (mouse, UniProt Q8C6G8 136-278); assay: as above
T1 construct: Wdr26, mouse, residues 136-278; Could not be purified on its own; source: E. coli BL21 CodonPlus (DE3) RIL, co-expressed with tagless Twa1_52, complex purified (Ni-IDA, 3C cleavage, SEC); not shown: His6, N-terminal, cleaved
T1 sequence (looked up): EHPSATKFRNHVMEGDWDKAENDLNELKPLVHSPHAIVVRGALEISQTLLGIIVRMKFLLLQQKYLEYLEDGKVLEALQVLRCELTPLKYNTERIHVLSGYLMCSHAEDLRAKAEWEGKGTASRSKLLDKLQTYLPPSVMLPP

[3] = molecular target: T2, muskelin CTLH-CRA domain (205–735 Δ248–625) (rat, UniProt Q99PV3 205-735, Δ248–625); assay: ITC; muskelin CTLH-CRA (160 μM, syringe) titrated into RanBP10 or Twa1 CTLH-CRA variants (16 μM, cell); 25°C; 20 mM tricine pH 8.0, 500 mM NaCl, 1 mM TCEP; one-site model
T2 construct: muskelin, rat, fusion of the CTLH motif and the C-terminus (CRA^N-like): residues 205-735 with 248-625 deleted; also called muskelin wt; CTLH-Ct construct; source: E. coli BL21 CodonPlus (DE3) RIL, purified as described previously (van gen Hassend et al., 2023)
T2 sequence (Q99PV3 other isoform, or with tags, fused parts or gaps Δ248–625 | Δ248–625 | mutant): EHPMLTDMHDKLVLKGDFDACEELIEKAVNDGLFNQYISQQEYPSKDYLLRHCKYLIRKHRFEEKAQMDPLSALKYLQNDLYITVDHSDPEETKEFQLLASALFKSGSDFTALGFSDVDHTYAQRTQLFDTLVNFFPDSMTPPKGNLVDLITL

muskelin (1–735) = molecular target: T3, muskelin (1–735) (rat, UniProt Q99PV3 1-735); assay: ITC; Twa1_52 CTLH-CRA (192 μM, syringe) titrated into muskelin (1–735) or Wdr26 (102–641) (19 μM, cell); 25°C; 20 mM tricine pH 8.0, 500 mM NaCl, 1 mM TCEP; one-site model
T3 construct: muskelin, rat, residues 1-735; also called full-length muskelin; tetrameric muskelin; source: E. coli BL21 CodonPlus (DE3) RIL, purified as described previously (van gen Hassend et al., 2023)
T3 sequence (Q99PV3 whole entry, the tested form may be a part): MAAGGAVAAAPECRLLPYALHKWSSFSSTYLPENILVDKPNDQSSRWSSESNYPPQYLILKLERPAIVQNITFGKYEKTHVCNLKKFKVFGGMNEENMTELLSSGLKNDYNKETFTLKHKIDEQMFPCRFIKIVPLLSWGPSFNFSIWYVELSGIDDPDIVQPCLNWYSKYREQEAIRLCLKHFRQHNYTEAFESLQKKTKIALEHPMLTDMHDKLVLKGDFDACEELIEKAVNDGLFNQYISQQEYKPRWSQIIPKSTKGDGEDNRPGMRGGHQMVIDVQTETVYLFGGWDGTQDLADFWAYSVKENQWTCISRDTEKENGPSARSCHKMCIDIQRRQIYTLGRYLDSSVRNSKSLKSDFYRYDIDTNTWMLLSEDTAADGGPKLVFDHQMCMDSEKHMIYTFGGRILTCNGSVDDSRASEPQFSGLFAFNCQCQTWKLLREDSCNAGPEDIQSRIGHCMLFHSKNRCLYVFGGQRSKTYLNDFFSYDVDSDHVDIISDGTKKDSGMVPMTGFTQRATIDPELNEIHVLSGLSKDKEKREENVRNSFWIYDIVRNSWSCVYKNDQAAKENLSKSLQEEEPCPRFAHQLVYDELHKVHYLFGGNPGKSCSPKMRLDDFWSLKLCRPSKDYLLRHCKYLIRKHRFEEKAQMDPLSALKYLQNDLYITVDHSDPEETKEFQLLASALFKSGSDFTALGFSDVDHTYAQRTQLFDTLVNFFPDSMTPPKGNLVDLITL

Wdr26 (102–641) = molecular target: T4, Wdr26 (102–641) (mouse, UniProt Q8C6G8 102-641); assay: as above
T4 construct: Wdr26, mouse, residues 102-641; also called dimeric Wdr26; (near) full-length Wdr26; source: E. coli BL21 CodonPlus (DE3) RIL, purified as described previously (van gen Hassend et al., 2023)
T4 sequence (looked up): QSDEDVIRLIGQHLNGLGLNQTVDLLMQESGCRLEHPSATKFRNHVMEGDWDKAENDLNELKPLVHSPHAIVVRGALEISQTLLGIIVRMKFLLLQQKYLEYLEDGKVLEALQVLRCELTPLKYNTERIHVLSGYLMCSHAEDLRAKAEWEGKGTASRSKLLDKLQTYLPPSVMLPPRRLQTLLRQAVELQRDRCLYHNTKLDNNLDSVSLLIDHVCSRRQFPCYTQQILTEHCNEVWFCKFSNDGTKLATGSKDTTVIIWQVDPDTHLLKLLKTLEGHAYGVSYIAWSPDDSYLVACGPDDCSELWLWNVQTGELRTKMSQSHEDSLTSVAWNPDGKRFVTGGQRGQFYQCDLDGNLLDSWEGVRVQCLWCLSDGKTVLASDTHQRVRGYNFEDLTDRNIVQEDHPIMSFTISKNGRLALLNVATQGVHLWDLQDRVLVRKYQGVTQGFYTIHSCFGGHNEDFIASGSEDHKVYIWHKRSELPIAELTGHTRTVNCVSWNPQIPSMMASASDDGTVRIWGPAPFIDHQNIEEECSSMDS

Sequence of muskelin CTLH-CRA domain co-expressed with Twa1_52 (rat) (chain, as listed by the source): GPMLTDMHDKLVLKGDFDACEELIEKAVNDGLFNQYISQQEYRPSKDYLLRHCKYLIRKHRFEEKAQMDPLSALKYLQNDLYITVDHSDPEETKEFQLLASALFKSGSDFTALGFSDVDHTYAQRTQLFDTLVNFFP

B1: Twa1_52 mutant (A125G, Q126R, Δ127T, L140K, E144K, L147F, F152Y, F160V), CTLH-CRA domain (domain or fragment, mouse, UniProt Q9D7M1 58-190, looked up)
chain: SVDLETLDERIKIREMILKGQIQEAIALINSLHPELLDTNRYLYFHLQQQHLIELIRQRETEAALEFGRQLAEQGEESRECKTEMKRTFALLAYDSPEESPVGDLLHMMQRQKVWSEVNQAVLDYENRESTP
notes: Twa1, mouse, CTLH-CRA domain 58-190 with eight changes; source: E. coli BL21 CodonPlus (DE3) RIL, purified (Ni-IDA, 3C cleavage, SEC); also tagless, co-expressed with muskelin or Wdr26 CTLH-CRA domain; not shown: His6, N-terminal, cleaved
stoichiometry N [1]: 1
stoichiometry N [2]: 1
Kd [3]: 0.146 µM
Kd (muskelin (1–735)): 0.0179 µM
Kd (Wdr26 (102–641)): 0.0159 µM
